{"source": "patent US8114412B2", "about": "“T. cruzi-derived neurotrophic agents and methods of use therefor” (priority 1999, dated 2012)", "molecules": {"B1": {"name": "TS: T. cruzi trans-sialidase purified by immuno-affinity chromatography from supernatants of infected Vero cells (SEQ ID NO:2, SEQ ID NO:34) (protein, listed as Trypanosoma cruzi)", "chain": "MVAIADARYETSSENSLIDTVAKYSVDDGETWETQIAIKNSRVSSVSRVVDPTVIVKGNKLYVLVGSYYSSRSYWSSHGDARDWDILLAVGEVTKSTAGGKITASIKWGSPVSLKKFFPAEMEGMHTNQFLGGAGVAIVASNGNLVYPVQVTNKRKQVFSKIFYSEDDGKTWKFGKGRSDFGCSEPVALEWEGKLIINTRVDWKRRLVYESSDMEKPWVEAVGTVSRVWGPSPKSNQPGSQTSFTAVTIEGMRVMLFTHPLNFKGRCVRDRLNLWLTDNQRIYNVGQVSIGDENSAYSSVLYKDDKLYCLHEINTDEVYSLVFARLVGELRIIKSVLRSWKNWTATCPAFAPLLIQPLRRQRVVVVPLSPRLVLLAFCRQRLPKRMGGSYRCVNASTANAERVRNGLKFAGVGGGALWPVSQQGQNQRYRFANHAFTLVASVTIHEAPRAASPLLGASLDSSGGKKLLGLSYDEKHQWQPIYGSTPVTPTGSWETGKRYHLVLTMANKIGSVYIDGELLEGSGQTVVPDGRTPDISHFYVGGYKRSDMPTISHVTVNNVLLYNRRQLNTEEIRTLFLSQDLIGTEAHMDSSSDSSAHSTPSTPADSSAHSTPSTPVDSSAHSTPSTPADSSAHGTPSTPVDSSAHGTPSTPADSSAHGTPSTPVDSSAHSTPSTPVDSSAHSTPSTPVDSSAHGAPSTPADSSAHGTPSTPVDSSAHGTPSTPADSSAHSTPSTPADSSAHSTPSTPADSSAHSTPSTPVDSSAHGTPSTPADSSAHSTPSTPADSSAHGTPSTPVDSSAHSTPSTPVDSSAHGTPSTPVDSSAHSTPSTPVDSSAHGTPSTPVDSSAHSTPSTPADSSAHSTPSTPADSSAHGTPSTPVDSSAHSTPSTPADSSAHSTPSTPVDSSAHSTPSTPADSSAHGTPSTPVDSSAHGTPSTPADSSAHSTPSTPADSSAHSTPSTPADSSAHSTPSTPVDSSAHSTPSTPADSSAHSTPSTPADSSAHSTPSTPADSSAHSTPSTPVDSSAHSTPSTPADSSAHGTPSTPADSSAHSTPSTPVDSSAHSTPSTPADSSAHGTPSTPADSSAHSTPSTPADSSAHGTPSTPADSSAHSTPSTPAGSSANGTVLILPDGAALSTFSGGGLLLCACALLLHVFFMAVF"}}, "tested_on": "peripheral blood mononuclear cells (PBMC)", "assay": "IL-6 secretion by PBMC (ELISA)", "format": "cell-based, human", "design": "IL-6 secretion by PBMC: dose or concentration left out as unconfirmed", "procedure": "Primary cultures of human intestinal microvascular endothelial cells (HIMEC) isolated from normal jejunal mucosa/submucosal tissue were prepared as described (Strong et al., Gastroenterology 114: 1244-1256 (1998)). The HIMEC were cultured in fibronectin-coated plasticware in MCDB medium (Sigma) supplemented with 20% FBS, 90 μg/ml heparin and 50 μg/ml endothelial cell growth factor (Sigma). T-24 cells (ATCC Accession No. HTB-4) were cultured in M199 medium supplemented with 10% FBS. PBMC were purified by Ficoll-Paque gradient as described (Current Protocols in Immunology, pp 7.1.1-7.1.2). Vero cells (ATCC Accession No. CCL-81) were grown in RPMI medium with 5% Nu serum and infected with the Silvio X-10/4 of T. cruzi as described previously (Chuenkova et al., J. Exp. Med. 181: 1693-1703, (1995)).\nEndothelial cells and T-24 cells were plated on 24-well plates at a density of 1×10^3 cells/well, while peripheral blood mononuclear cells (PBMC) were plated in the similar wells at 1×10^6/well. Triplicat cultures of cells were incubated test agents for a predetermined amount of time. […] Cytokines and chemokines released in the culture supernatants were measured by ELISA assay following the instructions of the manufacturer (Endogen). The cytokines tested were IL-1β, IL-4, IL-8, IL-10, IL-12, IFN-γ, TNF-α, and the chemokines RANTES and MCP-1. Negative controls were cells incubated in medium containing polymixin B at 10 μg/ml, and positive controls were cells incubated with bacterial LPS at the low ng/ml range (for PBMC or HIMEC) or in the μg/ml range for carcinoma T-24 cells. In some experiments, IL-1β, or TNFα were used as positive control for cytokine release.\nTR peptides (Table 2) were synthesized at the Tufts Synthesis Facility (Boston, Mass.). Each peptide was purified by HPLC, and the number of amino acids and molecular weight of each peptide verified by mass spectrometry. Peptides were dissolved in growth medium (10% FCS in RPMI) and added at various concentrations to 1×10^6 PBMC/well in 24-well plates. After 24 hrs, IL-6 was assayed by ELISA in the conditioned supernatants.", "note": "Entries after “also recorded” stand apart in the source; their conditions may differ."}
{"molecule": "B1", "values": [{"measurement": "IL-6 secretion by PBMC", "setting": "24 hrs culture", "result": "potently and specifically induced IL-6 secretion; also recorded: stimulated IL-6 release"}, {"measurement": "stimulation time for maximum IL-6 secretion in PBMC", "setting": "TS 1 μg/ml", "result": 24, "unit": "h"}]}
